B1: P-selectin (Homo sapiens), P16109 (parent)
chain: MANCQIAILYQRFQRVVFGISQLLCFSALISELTNQKEVAAWTYHYSTKAYSWNISRKYCQNRYTDLVAIQNKNEIDYLNKVLPYYSSYYWIGIRKNNKTWTWVGTKKALTNEAENWADNEPNNKRNNEDCVEIYIKSPSAPGKWNDEHCLKKKHALCYTASCQDMSCSKQGECLETIGNYTCSCYPGFYGPECEYVRECGELELPQHVLMNCSHPLGNFSFNSQCSFHCTDGYQVNGPSKLECLASGIWTNKPPQCLAAQCPPLKIPERGNMTCLHSAKAFQHQSSCSFSCEEGFALVGPEVVQCTASGVWTAPAPVCKAVQCQHLEAPSEGTMDCVHPLTAFAYGSSCKFECQPGYRVRGLDMLRCIDSGHWSAPLPTCEAISCEPLESPVHGSMDCSPSLRAFQYDTNCSFRCAEGFMLRGADIVRCDNLGQWTAPAPVCQALQCQDLPVPNEARVNCSHPFGAFRYQSVCSFTCNEGLLLVGASVLQCLATGNWNSVPPECQAIPCTPLLSPQNGTMTCVQPLGSSSYKSTCQFICDEGYSLSGPERLDCTRSGRWTDSPPMCEAIKCPELFAPEQGSLDCSDTRGEFNVGSTCHFSCDNGFKLEGPNNVECTTSGRWSATPPTCKGIASLPTPGVQCPALTTPGQGTMYCRHHPGTFGFNTTCYFGCNAGFTLIGDSTLSCRPSGQWTAVTPACRAVKCSELHVNKPIAMNCSNLWGNFSYGSICSFHCLEGQLLNGSAQTACQENGHWSTTVPTCQAGPLTIQEALTYFGGAVASTIGLIMGGTLLALLRKRFRQKDDGKCPLNPHSHLGTYGVFTNAAFDPSP
partner: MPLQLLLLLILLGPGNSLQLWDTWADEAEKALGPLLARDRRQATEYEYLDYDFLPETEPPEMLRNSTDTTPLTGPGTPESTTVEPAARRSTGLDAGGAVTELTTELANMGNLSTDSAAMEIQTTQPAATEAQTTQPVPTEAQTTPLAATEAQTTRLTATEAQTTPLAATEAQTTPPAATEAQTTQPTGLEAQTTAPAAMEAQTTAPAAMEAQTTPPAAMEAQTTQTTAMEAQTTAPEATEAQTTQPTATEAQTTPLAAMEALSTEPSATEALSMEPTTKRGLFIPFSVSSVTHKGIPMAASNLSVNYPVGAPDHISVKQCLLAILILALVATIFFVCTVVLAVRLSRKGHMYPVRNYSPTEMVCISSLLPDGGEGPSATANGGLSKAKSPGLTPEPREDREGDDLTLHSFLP

Variants of: B1
Conditions: with selpl_human SELPLG

Row | effect of a mutation on the interaction | Variant
1 | increasing interaction | A69H
